Molecular target: full-length GST-tagged SARS-CoV-2 Nucleocapsid (N) protein (SARS-CoV-2, UniProt P0DTC9 1-419)
Test: pull-down

B1: human UPF2 truncated construct lacking 120 and 45 residues at the N- and C-termini (domain or fragment)
chain: MKEKEESIQLHQEAWERHHLRKELRSKNQNAPDSRPEENFFSRLDSSLKKNTAFVKKLKTITEQQRDSLSHDFNGLNLSKYIAEAVASIVEAKLKISDVNCAVHLCSLFHQRYADFAPSLLQVWKKHFEARKEEKTPNITKLRTDLRFIAELTIVGIFTDKEGLSLIYEQLKNIINADRESHTHVSVVISFCRHCGDDIAGLVPRKVKSAAEKFNLSFPPSEIISPEKQQPFQNLLKEYFTSLTKHLKRDHRELQNTERQNRRILHSKGELSEDRHKQYEEFAMSYQKLLANSQSLADLLDENMPDLPQDKPTPEEHGPGIDIFTPGKPGEYDLEGGIWEDEDARNFYENLIDLKAFVPAILFKDNEKSCQNKESNKDDTKEAKESKENKEVSSPDDLELELENLEINDDTLELEGGDEAEDLTKKLLDEQEQEDEEASTGSHLKLIVDAFLQQLPNCVNRDLIDKAAMDFCMNMNTKANRKKLVRALFIVPRQRLDLLPFYARLVATLHPCMSDVAEDLCSMLRGDFRFHVRKKDQINIETKNKTVRFIGELTKFKMFTKNDTLHCLKMLLSDFSHHHIEMACTLLETCGRFLFRSPESHLRTSVLLEQMMRKKQAMHLDARYVTMVENAYYYCNPPPAEKTVKKKRPPLQEYVRKLLYKDLSKVTTEKVLRQMRKLPWQDQEVKDYVICCMINIWNVKYNSIHCVANLLAGLVLYQEDVGIHVVDGVLEDIRLGMEVNQPKFNQRRISSAKFLGELYNYRMVESAVIFRTLYSFTSFGVNPDGSPSSLDPPEHLFRIRLVCTILDTCGQYFDRGSSKRKLDCFLVYFQRYVWWKKSLEVWTKDHPFPIDIDYMISDTLELLRPKIKLCNSLEESIRQVQDLEREFLIKLGLVNDKDSKDSMTEGENLEEDEEEEEGGAETEEQSGNESEVNEPEEEEGSDNDDDEGEEEEEENTDYLTDSNKENETDEENTEVMIKGGGLKHVPCVEDEDFIQALDKMMLENLQQRSGESVKVHQLDVAIPLHLKSQLRKGPPLGGGEGEAESADTMPFVMLTRKGNKQQFKILNVPMSSQLAANHWNQQQAEQEERMRMKKLTLDINERQEQED
B1: binds.

— publication doi:10.1101/2024.07.16.603698 (bioRxiv, 2024)
